The results in this text go back to article PMC314469, “Protein Interaction Networks by Proteome Peptide Scanning” (PLoS Biology, 2004).

Common to all, as to assay: SPOT array
For test [1], the target named is T1, Yfr024 SH3 (LSB3_YEAST), P43603.
T1 chain: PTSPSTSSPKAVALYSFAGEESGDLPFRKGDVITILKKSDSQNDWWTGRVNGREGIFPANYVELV

Test [2] addresses Sho1 SH3 (SHO1_YEAST), P40073.
For test [3], the target named is T2, Boi2 SH3 (BOI2_YEAST), P39969.
T2 chain: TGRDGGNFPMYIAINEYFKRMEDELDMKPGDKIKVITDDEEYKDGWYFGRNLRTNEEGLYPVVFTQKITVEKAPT

Test [4] deals with T3, Rvs167 SH3 (RV167_YEAST), P39743.
T3 chain: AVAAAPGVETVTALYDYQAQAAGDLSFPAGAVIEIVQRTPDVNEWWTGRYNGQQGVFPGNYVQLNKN

Test [5] concerns the target T4, Myo5 SH3 (MYO5_YEAST), Q04439.
T4 chain: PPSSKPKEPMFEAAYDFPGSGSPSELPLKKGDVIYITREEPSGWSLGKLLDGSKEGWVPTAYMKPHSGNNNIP

The target in test [6] is T5, Boi1 SH3 (BOI1_YEAST), P38041.
T5 chain: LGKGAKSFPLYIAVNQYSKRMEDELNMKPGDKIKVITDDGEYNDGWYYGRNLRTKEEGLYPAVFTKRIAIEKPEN

Test [7] addresses T6, Yhr016c SH3 (YSC84_YEAST), P32793.
T6 chain: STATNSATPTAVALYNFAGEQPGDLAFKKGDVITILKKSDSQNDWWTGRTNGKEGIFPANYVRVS

Sho1 SH3 (SHO1_YEAST), P40073, sequence (P40073 295-366): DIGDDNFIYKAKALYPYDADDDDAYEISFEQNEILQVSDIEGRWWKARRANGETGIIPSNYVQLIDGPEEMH

Take ILKNRMNPEKPYEL [YBL034C 850-863]: the normalised SPOT signal, Boehringer light units (BLU); mean over the file's lines of this peptide in test [1] was 348; in test [2] it was 100; in test [3], 149; in test [4], 240; in test [5] it was 322; in test [6], 327. Further, the normalised SPOT signal, Boehringer light units (BLU); mean over the file's lines of this peptide in test [7] was 55.5.

On to IMDAKFHPFKPQLF [YMR049C 642-655], for which the normalised SPOT signal, Boehringer light units (BLU); mean over the file's lines of this peptide in test [1] came out at 813; in test [2], 94.3; in test [3], 42.4; in test [4], 213; in test [5], 246; in test [6], 121. This molecule displayed a normalised SPOT signal, Boehringer light units (BLU); mean over the file's lines of this peptide in test [7] of 84.6.

Consider ILERKNIPRQPAIR [YDL034W 13-26], for which the normalised SPOT signal, Boehringer light units (BLU); mean over the file's lines of this peptide in test [1] came out at 354; in test [2], 99.1; in test [3] it was 19.9; in test [4], 138; in test [5], 603; in test [6], 1780. In test [7], the normalised SPOT signal, Boehringer light units (BLU); mean over the file's lines of this peptide is 35.3.

Regarding ILPPRIVPAIPKKA [YNL064C 352-365], the normalised SPOT signal, Boehringer light units (BLU); mean over the file's lines of this peptide worked out at 3560 in test [1]; 38.5 in test [2]; 29 in test [3]; 17600 in test [4]; 3670 in test [5]; 227 in test [6]. This molecule also showed a normalised SPOT signal, Boehringer light units (BLU); mean over the file's lines of this peptide in test [7] of 3210.

On to ILEGKFEPVIPREW [YCL047C 191-204], for which the normalised SPOT signal, Boehringer light units (BLU); mean over the file's lines of this peptide was determined as 82.5 in test [1]; 9.5 in test [2]; 71.3 in test [3]; 80 in test [4]; 93.2 in test [5]; 53.6 in test [6]. The same molecule came in with a normalised SPOT signal, Boehringer light units (BLU); mean over the file's lines of this peptide in test [7] of 40.5.

In the case of ILFERILPILPVES [YOL081W 29-42], the normalised SPOT signal, Boehringer light units (BLU); mean over the file's lines of this peptide was found to be 1840 in test [1]; 5680 in test [2]; 16.2 in test [3]; 457 in test [4]; 340 in test [5]; 152 in test [6]. Moreover, the normalised SPOT signal, Boehringer light units (BLU); mean over the file's lines of this peptide in test [7] was 1500.
